One molecule from patent US20160222085A1 (CHILDREN S HOSPITAL OF PHILADELPHIA, published 2016) can be followed below.

The target of assay [1] is T1, FV-810^R1545Q pretreated with thrombin (human, UniProt P12259 29-737; P12259 738-838; P12259 1520-2224).
T1 construct: Cleaved only at Arg709: B-domain remnant stays tethered to the light chain; also called thrombin-cleaved FV-810^R1545Q
The assay is described as follows: fluorescence anisotropy; thrombin-pretreated protein titrated into 30 nM OG488-BR, 50 uM PCPS; n=1 assumed. Here is the method:
(§1) FV-810, FV-810^R709Q (▴), FV-810^R1545Q (♦), and FV-810^QQ (▪) were pretreated with buffer (FIG. 14A) or thrombin (FIG. 14B).
(§2) Steady-state fluorescence anisotropy was measured at 25° C. in a PTI Quanta-Master™ fluorescence spectrophotometer (Photon Technology International, Birmingham, N.J.) using excitation and emission wavelengths of 480 and 520 nm, respectively, with long-pass filters (KV500, CVI Melles Griot) in the emission beam.
A general note: Fluorescence polarisation rises when a labelled molecule tumbles more slowly, as on binding a larger partner.

Assay [2] concerns the target T2, FV-810^QQ (human, UniProt P12259 29-838; P12259 1520-2224).
T2 construct: range 1-810;range 1492-2196; Both thrombin sites (Arg709 and Arg1545) changed to Gln; the assay field says where thrombin pretreatment was used
The assay is described as above. Here is the method: as §1, §2

In the next assay the target is T3, FV-810^R709Q (human, UniProt P12259 29-838; P12259 1520-2224).
T3 construct: range 1-810;range 1492-2196; mature numbering
The assay is described as follows: fluorescence anisotropy; buffer-pretreated protein titrated into 30 nM OG488-BR, 50 uM PCPS; n=1 assumed. Here is the method: as §1, §2

The target of another assay is T4, FV-810^R1545Q (human, UniProt P12259 29-838; P12259 1520-2224).
T4 construct: range 1-810;range 1492-2196; mature numbering
Described as above. Here is the method: as §1, §2

Assay [3] deals with T5, FV-810 (FV-DT), Factor V with amino acids 811-1491 deleted from the B-domain (human, UniProt P12259 29-838; P12259 1520-2224).
T5 construct: range 1-810;range 1492-2196; Single-chain cofactor-like variant; All residue numbers count on mature Factor V (add 28 for the precursor)
The assay is described as above. Here is the method:
as §1, §2

The target in assay [4] is T2, FV-810^QQ. Described as above. Here is the method:
as §1, §2

In assay [5] the target is T5, FV-810 (FV-DT), Factor V with amino …. The assay is described as follows: fluorescence anisotropy; FV-810 titrated into 20 or 40 nM OG488-BR, 50 uM PCPS, 25 C. Here is the method:
Control experiments were performed by titrating FV-810 into buffer containing 10 mM EDTA (X) or by titrating rFVa (▴).
as §2
Data were analyzed by nonlinear least squares regression analysis using the Marquardt algorithm (Bevington et al. (1992) Data Reduction and Error Analysis for the Physical Sciences, pp. 141-167, McGraw-Hill, New York), and the quality of each fit was assessed as described (Straume et al. (1992) Methods Enzymol., 210:87-105).

Ends that are not written are not given here.

T2 sequence (P12259 other isoform, or with tags, fused parts or gaps): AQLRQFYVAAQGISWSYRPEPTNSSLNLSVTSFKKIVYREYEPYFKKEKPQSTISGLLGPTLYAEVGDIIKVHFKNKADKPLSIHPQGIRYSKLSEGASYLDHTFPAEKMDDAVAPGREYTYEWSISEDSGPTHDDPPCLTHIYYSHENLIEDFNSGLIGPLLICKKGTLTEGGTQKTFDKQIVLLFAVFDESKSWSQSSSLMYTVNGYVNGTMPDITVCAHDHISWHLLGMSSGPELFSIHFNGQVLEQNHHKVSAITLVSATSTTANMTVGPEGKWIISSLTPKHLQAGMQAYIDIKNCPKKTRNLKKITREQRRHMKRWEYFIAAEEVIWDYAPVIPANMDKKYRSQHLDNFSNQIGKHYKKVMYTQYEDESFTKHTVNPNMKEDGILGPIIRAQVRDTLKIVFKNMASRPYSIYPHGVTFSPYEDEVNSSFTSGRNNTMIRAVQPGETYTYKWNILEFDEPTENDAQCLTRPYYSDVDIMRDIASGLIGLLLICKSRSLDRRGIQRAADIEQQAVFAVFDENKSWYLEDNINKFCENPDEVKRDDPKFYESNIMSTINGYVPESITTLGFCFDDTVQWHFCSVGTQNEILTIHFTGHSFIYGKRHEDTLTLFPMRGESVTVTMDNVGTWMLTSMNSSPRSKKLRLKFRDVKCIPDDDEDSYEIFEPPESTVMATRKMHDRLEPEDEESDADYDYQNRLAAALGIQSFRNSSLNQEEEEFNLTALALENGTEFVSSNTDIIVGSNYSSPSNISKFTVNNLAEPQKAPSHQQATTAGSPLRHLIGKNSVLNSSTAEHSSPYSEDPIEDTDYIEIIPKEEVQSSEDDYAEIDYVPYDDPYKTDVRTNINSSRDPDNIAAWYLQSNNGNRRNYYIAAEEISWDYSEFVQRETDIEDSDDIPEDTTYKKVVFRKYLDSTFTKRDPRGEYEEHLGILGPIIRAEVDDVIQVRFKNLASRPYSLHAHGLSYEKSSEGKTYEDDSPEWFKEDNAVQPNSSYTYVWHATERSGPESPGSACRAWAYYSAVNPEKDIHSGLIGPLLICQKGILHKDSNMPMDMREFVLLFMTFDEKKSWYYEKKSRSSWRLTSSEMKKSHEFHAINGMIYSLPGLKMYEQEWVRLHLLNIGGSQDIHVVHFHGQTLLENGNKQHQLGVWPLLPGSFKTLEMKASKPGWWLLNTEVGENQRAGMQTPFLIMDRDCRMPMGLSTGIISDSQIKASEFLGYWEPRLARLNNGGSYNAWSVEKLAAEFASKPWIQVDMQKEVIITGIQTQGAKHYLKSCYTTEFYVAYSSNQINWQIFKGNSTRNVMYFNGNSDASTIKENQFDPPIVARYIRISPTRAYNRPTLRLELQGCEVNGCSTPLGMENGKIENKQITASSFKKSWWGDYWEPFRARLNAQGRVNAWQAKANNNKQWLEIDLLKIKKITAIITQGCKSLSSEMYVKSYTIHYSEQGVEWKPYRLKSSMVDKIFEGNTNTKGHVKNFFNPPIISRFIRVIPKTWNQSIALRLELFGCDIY
T5 sequence (P12259 other isoform, or with tags, fused parts or gaps, form in doubt): as the sequence (P12259 other isoform, or with tags, fused parts or gaps) above, with Q709R, Q864R counted along it
T1 sequence (P12259 29-737, chain 1 of 2): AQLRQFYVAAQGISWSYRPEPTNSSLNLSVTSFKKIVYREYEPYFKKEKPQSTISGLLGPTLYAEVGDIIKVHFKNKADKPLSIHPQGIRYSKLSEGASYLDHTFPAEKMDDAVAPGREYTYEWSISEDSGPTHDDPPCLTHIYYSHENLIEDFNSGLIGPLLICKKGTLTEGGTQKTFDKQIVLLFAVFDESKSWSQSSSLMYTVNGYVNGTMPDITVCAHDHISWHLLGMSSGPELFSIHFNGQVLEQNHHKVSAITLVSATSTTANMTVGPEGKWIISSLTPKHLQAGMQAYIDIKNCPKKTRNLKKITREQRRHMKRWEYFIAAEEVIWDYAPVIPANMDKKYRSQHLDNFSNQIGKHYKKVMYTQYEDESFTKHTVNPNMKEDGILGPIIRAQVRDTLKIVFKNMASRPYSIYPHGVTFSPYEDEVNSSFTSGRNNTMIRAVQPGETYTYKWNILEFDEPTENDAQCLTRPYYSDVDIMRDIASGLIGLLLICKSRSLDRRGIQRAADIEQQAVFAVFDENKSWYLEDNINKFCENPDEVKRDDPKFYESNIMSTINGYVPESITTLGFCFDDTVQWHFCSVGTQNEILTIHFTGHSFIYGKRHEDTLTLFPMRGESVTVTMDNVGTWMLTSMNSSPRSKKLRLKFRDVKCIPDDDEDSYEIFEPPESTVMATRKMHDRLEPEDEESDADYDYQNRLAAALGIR
T1 sequence (P12259 other isoform, or with tags, fused parts or gaps R1545Q R1545Q, chain 2 of 2): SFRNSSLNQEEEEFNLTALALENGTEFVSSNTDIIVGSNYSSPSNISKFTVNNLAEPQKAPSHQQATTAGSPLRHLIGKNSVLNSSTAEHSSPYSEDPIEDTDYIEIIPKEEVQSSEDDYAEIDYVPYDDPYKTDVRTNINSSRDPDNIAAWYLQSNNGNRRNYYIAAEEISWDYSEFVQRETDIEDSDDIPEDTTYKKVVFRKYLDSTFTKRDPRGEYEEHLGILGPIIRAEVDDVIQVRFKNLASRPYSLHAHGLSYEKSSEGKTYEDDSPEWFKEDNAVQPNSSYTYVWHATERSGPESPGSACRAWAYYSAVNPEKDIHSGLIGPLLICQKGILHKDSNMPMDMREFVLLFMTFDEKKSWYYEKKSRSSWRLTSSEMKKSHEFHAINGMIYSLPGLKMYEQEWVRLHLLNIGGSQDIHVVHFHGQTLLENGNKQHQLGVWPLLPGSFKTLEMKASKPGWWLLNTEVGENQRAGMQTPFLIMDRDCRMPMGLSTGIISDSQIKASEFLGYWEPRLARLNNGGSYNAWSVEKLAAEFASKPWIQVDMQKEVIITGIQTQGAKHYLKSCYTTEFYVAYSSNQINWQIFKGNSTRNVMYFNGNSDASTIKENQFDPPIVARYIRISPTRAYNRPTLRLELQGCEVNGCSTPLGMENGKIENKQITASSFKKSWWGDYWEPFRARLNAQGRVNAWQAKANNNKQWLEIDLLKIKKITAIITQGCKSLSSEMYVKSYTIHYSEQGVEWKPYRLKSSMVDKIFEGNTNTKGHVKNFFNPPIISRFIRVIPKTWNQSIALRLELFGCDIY
T4 sequence (P12259 other isoform, or with tags, fused parts or gaps R1545Q R1545Q): as the sequence (P12259 other isoform, or with tags, fused parts or gaps) above, with Q709R counted along it
T3 sequence (P12259 other isoform, or with tags, fused parts or gaps R709Q R709Q): as the sequence (P12259 other isoform, or with tags, fused parts or gaps) above, with Q864R counted along it

B1: Oregon Green 488 maleimide-modified BR (OG488-BR) (peptide)
peptide: C(Oregon Green 488 maleimide)SRAWGESTPLANKPGKQSGHPKFPRVRHKSLQVRQDGGKSRLKKSQFLIKTRKKKKEK
notes: also called fluorescently labeled FVBR
One may read the Kd as the concentration at which binding is half-saturated. In the case of B1, the equilibrium dissociation constant (Kd) came out at 30.3 nM in assay [1]; 1.3 nM in the assay with FV-810^QQ [2]; 7.1 nM in the assay with FV-810^R709Q; 2 nM in the assay with FV-810^R1545Q; 2.1 nM in assay [3]; 0.31 nM with FV-810^QQ [4]. For the same molecule, the dissociation constant (Kd) in assay [5] stood at 2.07 nM.
